Measurements from publication PMC4855880 (Developmental cell, 2016).

Target: Rvs167 (1-265)/161 heterodimer (S. cerevisiae, UniProt P39743 1-265; P25343 1-265)
Test: liposome flotation

- stoichiometry N: ~0.25 calmodulin per heterodimer
B1: GST-Cmd1 (natural protein)
chain: not shown
